Experimental data reported in patent US10808017B2, “Ubiquitin variants and uses therof as 53BP1 inhibitors” (The Governing Council of the University of Toronto, priority 2016, dated 2020).

What was measured:
[1] = target: T1, PHB (Homo sapiens, UniProt P35232); experiment: Flag IP-MS of i53/i53-DM baits: prey PHB; type: binding; settings: 293T Flp-In/T-Rex extracts, LC-MS/MS, one column per replicate IP
T1 construct: endogenous in cells; host or cells: HEK293 Flp-In/T-REx
T1 sequence (P35232 1-272): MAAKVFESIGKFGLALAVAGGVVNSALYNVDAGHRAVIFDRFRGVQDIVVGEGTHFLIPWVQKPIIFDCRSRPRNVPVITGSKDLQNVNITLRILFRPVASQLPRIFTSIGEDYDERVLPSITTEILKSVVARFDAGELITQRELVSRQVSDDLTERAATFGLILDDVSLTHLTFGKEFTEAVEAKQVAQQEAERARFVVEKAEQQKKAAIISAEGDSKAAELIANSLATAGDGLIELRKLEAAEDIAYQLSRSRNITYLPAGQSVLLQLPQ
Description: (§1) Following immunoprecipitation of Flag-tagged i53 and i-53-DM from HEK293 Flp-In/T-REx cells, peptides were identified using LC-MS/MS. Proteins were digested in solution with trypsin (Sigma, T7575-1KT) and dried to completeness. For LC-MS/MS analysis, peptides were reconstituted in 5% formic acid and loaded onto a 12-15 cm fused silica column with pulled tip packed in-house with 3.5 μm Zorbax C18 (Agilent Technologies, Calif., USA).
(§2) i53 and i53-DM precipitates were analyzed using an LTQ (Thermo Scientific) coupled to an Agilent 1100 Series HPLC (Agilent Technologies). Peptides were eluted from the column using a 90 min period cycle with a linear gradient from 0% to 40% ACN in 0.1% formic acid. Tandem MS spectra were acquired in a data-dependent mode for the top 5 (LTQ) most abundant ions using collision-induced dissociation. Acquired spectra were searched against the human Refseq_V53 database using Mascot (Matrix Science).
(§3) 293T Flp-In/T-Rex cell lines were generated that expressed Flag-tagged i53 or i53-DM under the control of a tetracycline-inducible promoter as previously described. Nine IP-MS experiments were analyzed (3 biological replicate IPs each for control i53- and i53-DM expressing cell lines). The interacting proteins were identified by MASCOT to identify high-confidence interactors for i53. […]

[2] = tested on: BFP transgene in 293T cells; experiment: ssODN-based BFP-to-GFP HR assay; type: cell-based; settings: AAV-DJ transduced 293T cells, Cas9 RNP, 4 d, versus i53-DM
Excerpt: FIG. 11. 53BP1 inhibition by i53 stimulates ssODN-mediated homologous recombination. FIG. 11A, Schematic of the BFP-to-GFP conversion assay. Cells carrying a stably integrated BFP transgene are transfected with Cas9 ribonucleoproteins (RNPs) programmed with a gRNA against the BFP coding sequence along with an ssODN that converts 3 nucleotides of BFP into those that produce a GFP protein upon successful HR-mediated repair. FIG. 11B-C, 293T cells that were first transduced with AAV-DJ1 vectors coding for i53-DM or i53 with the BFP transgene were nucleofected with Cas9 RNPs and optimal (b) and suboptimal (c) ssODN repair donors that convert BFP to GFP. 4 d after nucleofection, GFP fluorescence was monitored by flow cytometry. […] 3 d post-nucleofection, genomic DNA was isolated and the presence of the Pcil restriction fragment length polymorphism (RFLP) was determined by restriction digest on PCR-amplified genomic DNA. […]
The BFP-to-GFP assay was performed essentially as described Richardson CD et al, Nat Biotechnol. […] After 4 days, BFP and GFP fluorescence were measured by flow cytometry on a BD Fortessa, and analyzed with FlowJo v10 software. […]

[3] = target: T2, TTC12 (Homo sapiens, UniProt Q9H892); experiment: Flag IP-MS of i53/i53-DM baits: prey TTC12; type: binding; settings: 293T Flp-In/T-Rex extracts, LC-MS/MS, one column per replicate IP
T2 construct: endogenous in cells; host or cells: HEK293 Flp-In/T-REx cells
T2 sequence (Q9H892 1-705): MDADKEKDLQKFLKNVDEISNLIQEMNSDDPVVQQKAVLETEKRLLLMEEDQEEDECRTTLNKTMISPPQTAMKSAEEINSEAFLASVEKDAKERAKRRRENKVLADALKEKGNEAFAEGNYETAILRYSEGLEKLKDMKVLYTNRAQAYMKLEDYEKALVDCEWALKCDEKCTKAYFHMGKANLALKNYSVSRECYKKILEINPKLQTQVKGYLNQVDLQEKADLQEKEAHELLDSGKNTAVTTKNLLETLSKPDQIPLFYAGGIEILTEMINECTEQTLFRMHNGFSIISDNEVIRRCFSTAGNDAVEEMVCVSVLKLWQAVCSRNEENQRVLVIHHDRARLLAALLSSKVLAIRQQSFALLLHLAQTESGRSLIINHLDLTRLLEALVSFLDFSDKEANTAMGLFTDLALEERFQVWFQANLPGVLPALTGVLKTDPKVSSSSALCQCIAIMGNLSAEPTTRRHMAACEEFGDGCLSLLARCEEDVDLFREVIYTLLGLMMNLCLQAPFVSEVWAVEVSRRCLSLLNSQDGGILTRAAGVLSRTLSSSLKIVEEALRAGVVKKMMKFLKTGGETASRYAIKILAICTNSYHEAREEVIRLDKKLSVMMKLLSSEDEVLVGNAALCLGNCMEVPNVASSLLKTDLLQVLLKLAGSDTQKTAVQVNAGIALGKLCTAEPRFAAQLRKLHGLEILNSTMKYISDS
Description: as §1, §2, §3

[4] = target: T3, WDR96 (Homo sapiens, UniProt Q8NDM7); experiment: Flag IP-MS of i53/i53-DM baits: prey WDR96; type: binding; settings: 293T Flp-In/T-Rex extracts, LC-MS/MS, one column per replicate IP
T3 construct: Following immunoprecipitation of Flag-tagged i53 and i-53-DM from HEK293 Flp-In/T-REx cells, peptides were identified using LC-MS/MS; endogenous in cells; host or cells: HEK293 Flp-In/T-REx cells
Description: as §1, §2, §3

T3 sequence (Q8NDM7 whole entry): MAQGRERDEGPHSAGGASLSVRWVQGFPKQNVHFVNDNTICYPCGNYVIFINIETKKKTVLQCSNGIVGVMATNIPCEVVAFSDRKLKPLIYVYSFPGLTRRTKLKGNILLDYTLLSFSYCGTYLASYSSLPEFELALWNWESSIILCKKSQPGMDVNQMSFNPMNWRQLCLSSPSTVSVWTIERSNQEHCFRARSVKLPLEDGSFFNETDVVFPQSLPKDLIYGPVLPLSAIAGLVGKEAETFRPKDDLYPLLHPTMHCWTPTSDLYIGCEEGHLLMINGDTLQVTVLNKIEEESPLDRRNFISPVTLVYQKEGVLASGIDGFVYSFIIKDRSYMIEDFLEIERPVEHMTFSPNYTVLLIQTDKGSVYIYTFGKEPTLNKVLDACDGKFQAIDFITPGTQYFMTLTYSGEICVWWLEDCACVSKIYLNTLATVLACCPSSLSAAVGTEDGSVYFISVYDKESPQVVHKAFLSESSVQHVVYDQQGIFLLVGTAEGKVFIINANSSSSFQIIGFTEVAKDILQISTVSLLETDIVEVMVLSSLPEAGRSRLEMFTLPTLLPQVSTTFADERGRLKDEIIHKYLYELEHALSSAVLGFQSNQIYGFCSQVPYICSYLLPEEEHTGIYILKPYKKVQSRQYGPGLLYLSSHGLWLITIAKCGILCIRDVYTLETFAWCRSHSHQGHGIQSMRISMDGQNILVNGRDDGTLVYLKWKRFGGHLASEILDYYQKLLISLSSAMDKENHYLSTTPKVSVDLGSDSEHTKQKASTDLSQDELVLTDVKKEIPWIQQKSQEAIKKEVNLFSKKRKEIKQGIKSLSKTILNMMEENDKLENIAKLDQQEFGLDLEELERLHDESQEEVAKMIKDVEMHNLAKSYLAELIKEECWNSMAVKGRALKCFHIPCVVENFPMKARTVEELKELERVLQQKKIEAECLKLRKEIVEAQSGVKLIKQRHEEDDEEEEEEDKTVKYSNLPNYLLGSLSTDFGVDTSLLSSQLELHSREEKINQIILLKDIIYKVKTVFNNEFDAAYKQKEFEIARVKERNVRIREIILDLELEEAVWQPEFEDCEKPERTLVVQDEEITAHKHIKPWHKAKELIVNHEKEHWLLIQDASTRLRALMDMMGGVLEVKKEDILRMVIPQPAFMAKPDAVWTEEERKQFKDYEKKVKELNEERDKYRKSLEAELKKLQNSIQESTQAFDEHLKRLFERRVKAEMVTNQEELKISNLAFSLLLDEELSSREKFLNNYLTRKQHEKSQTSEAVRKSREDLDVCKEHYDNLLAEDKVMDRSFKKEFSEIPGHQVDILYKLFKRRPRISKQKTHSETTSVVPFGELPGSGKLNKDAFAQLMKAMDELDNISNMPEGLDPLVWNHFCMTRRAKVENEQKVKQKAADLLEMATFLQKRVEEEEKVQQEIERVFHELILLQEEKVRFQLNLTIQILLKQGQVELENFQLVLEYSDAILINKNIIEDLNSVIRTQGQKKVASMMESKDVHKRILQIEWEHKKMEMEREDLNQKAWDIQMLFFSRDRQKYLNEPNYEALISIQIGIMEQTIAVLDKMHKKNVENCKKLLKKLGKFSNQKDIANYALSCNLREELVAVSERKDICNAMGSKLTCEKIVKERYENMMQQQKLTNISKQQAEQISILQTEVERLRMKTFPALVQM

| Substance | Total peptides, PHB [1] | Stimulation of HDR by ssODNs, BFP-to-GFP conversion [2] | Total peptides, TTC12 [3] | Total peptides, WDR96 [4] |
| --- | --- | --- | --- | --- |
| i53: UbvG08 with C-terminal di-glycine removed and I44A mutation; genetically encoded inhibitor of 53BP1 | 2 | 1.3-1.4 fold |  |  |
| i53-DM: 53BP1-binding deficient mutant of i53 (P69L, L70V) |  |  | 3 | 4 |
